Series [1] deals with CapW from Rhizobium leguminosarum (Rhizobium leguminosarum). Put plainly: crystal structure.
For the next series, the target named is T1, Ec CapW WT (Escherichia coli upec-117, UniProt P0DX76 1-299).
T1 sequence: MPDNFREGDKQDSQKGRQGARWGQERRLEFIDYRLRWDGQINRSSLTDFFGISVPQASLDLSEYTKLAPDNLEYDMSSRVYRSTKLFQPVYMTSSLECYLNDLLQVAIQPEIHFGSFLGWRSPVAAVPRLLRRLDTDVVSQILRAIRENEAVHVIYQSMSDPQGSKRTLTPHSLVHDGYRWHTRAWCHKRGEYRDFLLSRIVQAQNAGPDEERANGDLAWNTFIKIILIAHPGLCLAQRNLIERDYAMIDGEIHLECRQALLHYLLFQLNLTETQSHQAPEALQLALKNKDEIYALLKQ
As to the kind of experiment: fluorescence polarization. (In general: Fluorescence polarisation rises when a labelled molecule tumbles more slowly, as on binding a larger partner.)

Series [2] has as its target T2, Ec CapW S158E (Escherichia coli upec-117, UniProt P0DX76 1-299, S158E).
T2 sequence: T1 sequence with S158E
Put plainly: fluorescence polarization.

Series [3] has as its target T3, Ec CapW R200A (Escherichia coli upec-117, UniProt P0DX76 1-299, R200A).
T3 sequence: T1 sequence with R200A
As to the kind of experiment: fluorescence polarization.

In a further series the target is T4, Rl CapW WT (Rhizobium leguminosarum, UniProt PDB:9C5G_1 1-299).
T4 sequence: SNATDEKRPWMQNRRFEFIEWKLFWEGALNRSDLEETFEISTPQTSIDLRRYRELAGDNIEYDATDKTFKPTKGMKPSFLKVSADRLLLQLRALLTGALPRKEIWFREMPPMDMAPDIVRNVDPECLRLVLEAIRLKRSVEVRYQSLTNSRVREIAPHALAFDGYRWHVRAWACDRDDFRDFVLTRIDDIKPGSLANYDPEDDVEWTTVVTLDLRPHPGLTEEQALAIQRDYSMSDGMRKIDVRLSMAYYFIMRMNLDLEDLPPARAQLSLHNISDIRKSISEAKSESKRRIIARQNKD
As to the kind of experiment: X-ray crystallography.

The target of series [4] is T2, Ec CapW S158E. As to the kind of experiment: fluorescence polarization. The source holds these as a separate data set.
Series [5] concerns the target T3, Ec CapW R200A. As to the kind of experiment: fluorescence polarization. This is another data set of the same source.

Changes are numbered by the printed parent chain. Where two headings read alike, the source gives them in different places.

“CapW from Rhizobium leguminosarum (natural protein)” showed a stoichiometry N in series [1] of 2. As to AAAAAAA (ssDNA) [7mer poly-A], the binding result with Ec CapW WT is “no binding”. As for UUUUUUU (ssRNA) [7mer poly-U RNA], the binding result with Ec CapW WT is on record as “no binding”.

In the case of TTTTTTT (ssDNA) [7mer poly-T, FAM], the binding result with Ec CapW S158E [2] and with Ec CapW R200A [3] was “no binding” each time.

For TTTTTTT (ssDNA) [7mer poly-T, unlabeled], in the series with Rl CapW WT, the binding result is “binds”.

B1: CapW 30 bp palindromic binding site (dsDNA)
DNA 1: TAAAAACTGATCGTATAATAATGCTACGCT
DNA 2: AGCGTAGCATTATTATACGATCAGTTTTTA
As to B1, the binding result with Ec CapW S158E [4] and in the series with Ec CapW R200A [5] was “binds” each time.

One may read the stoichiometry N as the number of molecules, sites or subunits per partner or assembly.

Source of the values: paper PMC11662680.
